# According to the RNAGym collection of RNA variant scans (doi:10.1073/pnas.2313332121):
# B1: TPR t1 (parent)
# chain: GACCAAUCUGCCCUCAGAGCUCGAGAACAUCUUCGGAUGCAGAGGAGGCAGGCUUCGGUGGCGCGAUAGCGCCAACGUCCUCAACCUCCAAUGCAUCCCACCACAUGAUGAUGCCUGAAGAGCCUUGGUUUUUUG
# Variants of: B1
# Test: polymerase ribozyme fitness, log enrichment relative to wild type (log ratio); higher = more active; in vitro selection for triplet polymerase activity
# Procedure, shortened: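 Fitness compares each genotype's enrichment to that of the wild type on a logarithmic scale, averaging replicates with inverse-variance weights. The logarithm is base 2. Enrichment came from Illumina sequencing of input and output libraries after one triplicate round of in vitro selection, which included frozen incubation at −7 °C, of PCR-built, transcribed mutant libraries of each subunit of a heterodimeric triplet polymerase ribozyme. Only genotypes with ≥10 input reads and ≥1 read per output were kept.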
row,Variant,polymerase ribozyme fitness (log ratio)
1,GACCAAUCUGCCCUCAGAGCUCGAGAACAUCUUCGGAUGCAGAGGAGGCAGGCUUCGGUGGCGCGAUAGUGGCAACCUCCUCAACCUCCAAUGCAUCCCACCACAUGAUGAUGCCUGAAGAGCCUUGGUUUUUUG [C70U C72G G77C],-2.87
2,GACCAAUCUGCCCUCAGAGCUCGAGAACAUCUUCGGAUGCAGAGGAGGCAGGCUUCGGUGGCGCGAUAGCGCCAACGUCCUCAACCUCCAAUGCAUCCCACCACAUGAUGAUGCCUGAAGAGCCUUAUUUUUUUG [G127A G128U],-2.41
3,GACCAAUCUGCCCUCAGAGCUCGAGAACAUCUUCGGAUGCAGAGGAGGCAGGCUUCGGUGGCGCGAUAGCGACAACGUCCUCAACCUCCAAUGCAUCCCACUACAUGAUGAUGCCUGAAGAGCCUUGGUUUUUUG [C72A C102U],-1.48
4,GACCAAUCUGCCCUCAGAGCUCGAGAACAUCUUCGGAUGCAGAGGAUGCAGGCUUCGGUGGCGCGAUAGCGCCAACGUCCUCAACCUCCAAUGCAUCCCACCACGUGAUGAUGCCUGAAGAGCCUUGGUUUUUUG [G47U A105G],-3.69
5,GACCAAUUUGCCCUCAGAGCUCGAGAACAUCUUCGGAUAAAGAGGAGGCAGGCUUCGGUGGUGCGAUAGCGCCAACGUCCUCAACCUCCAAUUCAUCCCACCACAUGAUGCUGCCUGAAGAGCCUUGGUUUUUUG [C8U G39A C40A C62U G93U A111C],-0.367
6,GACCAAUCUGCCCUCAGAGCUCGAGAACAUCUUCGGAUGCAGAGGAAGCAGGCUUCGGUGGCGCGAUAGCGCCAACGUCCUCAAUCUCCAAUGCAUCCCAUCACAUGAUGAUGCCUGAAGAGCCUUGGUUUUUUG [G47A C85U C101U],-2.15
7,GACCAAUCUGCUUUCAGAGCUCGAGAACAUCUUCGGAUGCAGGGGAGGCAGGCUUCGGUGACGCGAUAGCGCCAACGUCCUCAACCUCCAAUGCAUCCCACCACAUGAUGAUGCCUGAAGAGCCUUGGUGUUUUG [C12U C13U A43G G61A U130G],-2.17
8,GACCAAUCUGCCCUCAGAGCUCGAGAACAUCUUCGGAUGCUGAGGAGGUAGGCUUCGGUGGCGCGAUAGCGCCAACGUCCUCAACCUACAAUGCAUCCCACCACAUGAUGAUGCCUGAAGUGCCUUGGUUUUUUG [A41U C49U C88A A121U],-0.675
9,GACCAAUCUGCCCUCAGAACUCGAGAACAUCUUCGGAUGCAGAGGAGGCAGGCUUCGGUAGCGCGAUAGCGCCAACGUCCUCAACCUCCAAUUCAUCCCACCACAUGAUGAUGCCUGAAGAGCCUUGGUUUUUUG [G19A G60A G93U],-3.84
10,GACCAAUCUGCCCUCAGAGCUCGAGAACAUCUUCGGAUGCAGAGGAGGCAGGCUUCGGUGGCGCGAUAGCGCCAACGUCCUCAACCUCCAAUGCAUCCCACCACAUGAAGAUGCCCGAAGAGCCUUGGUUUUUUG [U109A U116C],-7.07
11,GACCAAUCUGCCCUCAGAGCUCGAGAACAUCUUCGGAUGCAGAGGAGGCAGGCUUCGGUGGCGCGAUAGCGCCAACGUUCUCAACCUCCAAUGCAUCCCACCACAUGAUGUUGCCUGAAGAGCCUUGGUUUUUUG [C79U A111U],-3.01
12,GACCAAUCUUCCCACAGAGCUCGAGAACAUCUUCGGAUGCAGAGGAGGCAGGCUUCGGUGGCGCGAUAGCGCCAACGUCCUCAACCUCCAAUGCAUCCCACCACAUGAUGAUGCCCGAAGCGCCUUGGUUUUUUG [G10U U14A U116C A121C],-4.9
13,GACCAAUCUGCCCUCAGAGCUCGAGAACAUCUUCGGAUGCAGAGGAGGCAGGCUUCGGUGGCGCGAUAGUGCCAACGUGCUCAACCUCCAAUGCAUCCCACCACAUGAUGAUGCCUGAAGAGCCUUGGUUUUUUG [C70U C79G],-2.8
14,GACCAAUCUGCCCUCAGAGCUCGAGAACAUCUUCGGAUGCAGAAGAGGCAGGCUUCGGUGGCGCGAUAGCGCCAACGUCCUCAACCUCAAAUGCAUCCCACCACAUGAUGAUGCCUGAAGAGCCUUGGUUUUUUG [G44A C89A],-1.04
15,GACCAAUCUGCCCUCAGAGCUCGAGAACAUCUUCGGAUGCAGAGGAGGCAGGCUUCGGUUGCGCGAUAGCGCCAACCUCCUCAACCUCUAAUGCAUCCCACCACAUGAUGAUGCCUGAAGAGCCUUGGUUUAUUG [G60U G77C C89U U132A],-0.345
16,GACCAAUCUGCCCUCAGAGCUCGAGAACAUCUUCGGAUGCAGAGGAGGCAGGCUUCGGUGGCGCGAUAGCACCAACGUCCUCAACCUCCAAGGCAUCCCACCACAUGAUGAUGCCUGAAGAGCCUUGGUUUUUUG [G71A U92G],-3.98
17,GACCAAUGUGCCCUCAGAGCUCGAGAACAUCUUCGGAUGCAGAGGAGGCAGGCUUCGGUGGCGCGAUAGCGCCAACGUCCUCAACCUCCAAUGCAUCCCACCACAUGAUGAUGCCUGAAGAGCCUUGGUUUUUUU [C8G G135U],-0.819
18,GACCAAUCUGCCCUCAGAGCUCGAGAACAUCUUCGGAUGCAGAGGAGGCAGGCUUUGGUGGCGCGAUAGCGCCAACGUCCUCAACCACCAAUGCAUCCCACCACAUGAUGAUGCCUGAAGAGCCUUGGUUUUUUG [C56U U87A],-0.176
19,GACCAAUCUGCCUUCAGAGCUCGAGAACAUCUUCGGAUGUAGAGGAGUCAGGCUUCGGUGGCGCGAUAGCGCCAACGUCCUCAACCUCCAAUGCAUCCCACCACAUGAUAAUGCCUUUAGAGCCUUGGUUUUUUG [C13U C40U G48U G110A G117U A118U],-4.23
20,GACCAAUCUGCCCUCAGAGCUCGAGAACAUCUUCGGAUGCAGAGGAGGGAGGCUUCGGUGGCGCGAUAGCGCCAACGUCCUCAACCUCCAAUGCAUCCUACCACAUGAUGAUGCCUGAAGAGCCUUUGUUUUUUG [C49G C99U G127U],-4.66
21,GACCCAUUUGCCCUCAGAGCUCGAGAACAUCUUAGGAUGCAGAGGAGGCAGGCUUCGGUGGCGCGAUAGCGCCAACGUUCUCAACCUCCAAUGCAUCCCAGCACAUGAUGAUGCCUGAAGAGCCUUGGUUUUUUG [A5C C8U C34A C79U C101G],-3.49
